From the supplement of paper PMC9170038 come the findings set out here.

The subject of the data set is MS2 coat protein. Briefly: apparent KD of MS2 coat protein; designed switch direction (-1 OFF switch, 1 ON switch): -1; higher = weaker reporter binding. The essentials:
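The buffer was Tris-HCl pH 7.5 with KCl, MgCl2, BSA, DTT, tRNA and Tween-20. In it, SNAP-549-labelled MS2 coat protein was titrated in doubling steps from 0.7 or 1.5 nM to 3 µM over chip-bound RNA switches transcribed by stalled E. coli RNA polymerase on Illumina chips. Apparent KD is the per-design median over clusters of curve fits to normalised fluorescence.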

Setting [1] is: input ligand: microRNA oligo, concentration not stated.

“AGCAGACGAGGAUAUAGAUUUGUUGACAUGAGGAUCACCCAUGUGAUCGAUCUAUCAUAUUUAGAAGGUGUCUGCU [JR_Ex5_Sub041] (Eterna round: R97, puzzle: Exclusion 5)”: the “apparent KD of MS2 coat protein” value reads like this: (input ligand: FMN 200 uM) 18.6 nM; (input ligand: none) 14.3 nM.
Regarding “AGCAUGUAAGGAUAUGCAAGUGGCACGGAUAGUACCAGAAAGCAGAAGGUACAUGAGGAUCACCCAUGUGCUCC [Anenen] (Eterna round: R96, puzzle: Exclusion 4)”, the “apparent KD of MS2 coat protein” value came out at 233 nM (input ligand: FMN 200 uM), 67.2 nM under setting [1] and 80.1 nM (input ligand: none).
Turning to “AGCCACAGAGGAUAUACAUACAUCCAGUAGUUAAGAAAACUACAUGAGGAUCACCCAUGUAGAAGGCUGUGGCA [Omei Ex2 BD B5] (Eterna round: R97, puzzle: Exclusion 2)”, the “apparent KD of MS2 coat protein” value worked out at 507 nM (input ligand: FMN 200 uM) and 101 nM (input ligand: none).
In the case of “AGCCACAGAGGAUAUACAUACAUCCAGUAGUUAAGAAUACAACAUGAGGAUCACCCAUGUAGAAGGCUGUGGCA [Omei Ex2 BD B9] (Eterna round: R97, puzzle: Exclusion 2)”, the “apparent KD of MS2 coat protein” value reads like this: (input ligand: FMN 200 uM) 348 nM; (input ligand: none) 103 nM.
For “AGCCACAGAGGAUAUACAUACAUCCAGUAGUUAAGAAUACUACAUGAGGAUCACCCAUGUAGAAGGCUGUGGCA [Omei Ex2 BD B6] (Eterna round: R97, puzzle: Exclusion 2)”, the “apparent KD of MS2 coat protein” value by setting is: (input ligand: FMN 200 uM) 383 nM; (input ligand: none) 84.3 nM.
“AGCCACAGAGGAUAUACAUACAUCCAGUAGUUGAGAAAACUACAUGAGGAUCACCCAUGUAGAAGGCUGUGGCA [Omei Ex2 BD B4] (Eterna round: R97, puzzle: Exclusion 2)”: the “apparent KD of MS2 coat protein” value reads like this: (input ligand: FMN 200 uM) 27.4 nM; (input ligand: none) 321 nM.
On to “AGCCAUCUUGUGAGGAUAUGCCCUGGUCAAAGCCGGUAGAAGGUACAUGAGGAUCACCCAUGUGAACUAAUCUA [Eternabot (L1) Solution 90] (Eterna round: R97, puzzle: Brourd's mod of Exclusion 4)”, for which the “apparent KD of MS2 coat protein” value (input ligand: FMN 200 uM) was 14.1 nM and the “apparent KD of MS2 coat protein” value (input ligand: none) was determined as 16.2 nM.
Regarding “AGCCCUGCAGGAUAUGCCCGGGAUAACAUGAGGAUCACCCAUGUGACUGAUUGUUAUUCUGCAGAAGGGCAUGGGA [JL-EX5-4.14 ViennaUCT mod] (Eterna round: R97, puzzle: Exclusion 5)”, the “apparent KD of MS2 coat protein” value reads like this: (input ligand: FMN 200 uM) 335 nM; (input ligand: none) 494 nM.
Turning to “AGCCUACAUGAGGAUCACCCAUGUCAGGAUAUCUCGCGGCGUGUCAAGUUCACACUGCAGAGAAGGGACUCGGG [Edsoriri] (puzzle: Exclusion 1)”, the “apparent KD of MS2 coat protein” value (Eterna round: R95, input ligand: microRNA oligo, concentration not stated) is 51.4 nM.
On to “AGCCUAGCAGGAUAUGCUCGGGAUUACAUGAGGAUCACCCAUGUGACUGAUUGUUGUCUUGCAGAAGGGCUAGGGA [JL-EX5-4.04 ViennaUCT mod] (Eterna round: R97, puzzle: Exclusion 5)”, for which the “apparent KD of MS2 coat protein” value runs as follows: (input ligand: FMN 200 uM) 365 nM; (input ligand: none) 49 nM.
As to “AGCCUGGGUUCGCCCAGGUACAUGAGGAUCACCCAUGUCAUGGGUACUUGUGUUGGUAGGCAGUGUGCUCGUCUUAU [Cac Sensor turnoff v1 sub10] (Eterna round: R97, puzzle: Sensor, turn-off variant 1)”, the “apparent KD of MS2 coat protein” value reads like this: (input ligand: FMN 200 uM) 719 nM; (input ligand: none) 1050 nM.
Turning to “AGCGAAUAGGUAGGAUAUGAGAAUAGAUAGAGCUCAGAAGGACCACAUGAGGAUCACCCAUGUAAAGUCUUGAGGCUGCGUGGU [Prohibition 15 - Jieux - Exclusion NG 1] (Eterna round: R96, puzzle: Exclusion NG 1)”, the “apparent KD of MS2 coat protein” value runs as follows: (input ligand: FMN 200 uM) 51 nM; under setting [1], 14.4 nM; (input ligand: none) 17.5 nM.
As to “AGCGAGGUAGGAUAUACAUGAGGAUCACCCAUGUGCUUGCAUGGCGUGGAACGUCGAGGUAGAAGGGCCAUGCC [EX3 #73] (Eterna round: R97, puzzle: Exclusion 3)”, the “apparent KD of MS2 coat protein” value was 24.5 nM (input ligand: FMN 200 uM) and 27.8 nM (input ligand: none).
As to “AGCGUGUGAGGAUAUCGAUAUUGGAAGUCUAGGUCUGAGCGCGAGAAGGCACAUGAGGAUCACCCAUGUAAGGG [Teceor] (Eterna round: R97, puzzle: Exclusion 4)”, the “apparent KD of MS2 coat protein” value was 516 nM (input ligand: FMN 200 uM) and 375 nM (input ligand: none).
As to “AGCUAGAUAGGAUAUGCCCGAGAUAACAUGAGGAUCACCCAUGUGACCGAAUCUAUUCUAGCAGAAGGGUUUAGGA [Mod of ViennaUCT 17 - Jieux - Exclusion 5] (Eterna round: R97, puzzle: Exclusion 5)”, the “apparent KD of MS2 coat protein” value by setting is: (input ligand: FMN 200 uM) 16.5 nM; (input ligand: none) 14 nM.
For the sequence “AGCUAGAUAGGAUAUGCCCGGGAUAACAUGAGGAUCACCCAUGUGACCGAAUCAAAUCCAGCAGAAGGGUUUGGGA [Mod of ViennaUCT 13 - Jieux - Exclusion 5] (Eterna round: R97, puzzle: Exclusion 5)”, the “apparent KD of MS2 coat protein” value stood at 22 nM (input ligand: FMN 200 uM) and 18.6 nM (input ligand: none).
With “AGCUAGAUAGGAUAUGCCCGGGAUAACAUGAGGAUCACCCAUGUGGCCGAAUCAUGUCCAGCAGAAGGGUUUGGGA [Mod of ViennaUCT 10 - Jieux - Exclusion 5] (Eterna round: R97, puzzle: Exclusion 5)”, the “apparent KD of MS2 coat protein” value reads like this: (input ligand: FMN 200 uM) 18.2 nM; (input ligand: none) 17 nM.
“AGCUAGUCAGGAUAUACGAAAAUGUCAGAAGCUGAGAAGGGACAUGAGGAUCACCCAUGUAGAAGGGACUAGCA [Diamond 37] (Eterna round: R96, puzzle: Exclusion 2)”: under setting [1], the “apparent KD of MS2 coat protein” value worked out at 48.7 nM.
Consider “AGCUAGUCAGGAUAUUCUAAUAAUUACAUGAGGAUCACCCAUGUGAAUGGACAAGGGUGUGAAGAAGGGACUAGCG [Omei Ex5 A9] (Eterna round: R97, puzzle: Exclusion 5)”, for which the “apparent KD of MS2 coat protein” value reads like this: (input ligand: FMN 200 uM) 429 nM; (input ligand: none) 1230 nM.
For the sequence “AGCUAGUGCCGAGGAUAUACAUGAGGAUCACCCAUGUAAGCCAGUCGGUUUCUGACUGGCAAGAUGUAGAAGGCGGCGUUGGCA [JL ENG2 1.50] (Eterna round: R96, puzzle: Exclusion NG 2)”, the “apparent KD of MS2 coat protein” value was 57.1 nM (input ligand: FMN 200 uM), 9.57 nM under setting [1] and 13.5 nM (input ligand: none).
As for “AGCUGACAAGGAUAUACAUGAGGAUCACCCAUGUUGGUUCAGCGACGAUAGUCGCAAUGUAGAAGGUGUCAGCU [E3/9-C2] (Eterna round: R97, puzzle: Exclusion 3)”, the “apparent KD of MS2 coat protein” value worked out at 108 nM (input ligand: FMN 200 uM) and 282 nM (input ligand: none).
As for “AGCUGUGAGCGAGGAUAUCUGCUGUUUUCGGUCGGAGAAGGCGCGGACAGAACAUGAGGAUCACCCAUGUGUAUGGGCGGCCUC [Xexeenve] (Eterna round: R96, puzzle: Exclusion NG 1)”, the “apparent KD of MS2 coat protein” value reads like this: (input ligand: FMN 200 uM) 119 nM; under setting [1], 44.5 nM; (input ligand: none) 73.7 nM.
For the sequence “AGCUGUGGCCAAGGAUAUCCAACCUUAAAUACCGACGUAUAGUCGGACAUGAGGAUCACCCAUGUGGAGAAGGUGGUCUCAGCA [Eli eng2 - 042] (Eterna round: R96, puzzle: Exclusion NG 2)”, the “apparent KD of MS2 coat protein” value was found to be 52.2 nM (input ligand: FMN 200 uM), 33.7 nM under setting [1] and 30.1 nM (input ligand: none).
Turning to “AGCUGUGGCCGAGGAUAUACAUGAGGAUCACCCAUGUUACAUAAUUAAGCCGGAGAACCGGCUCCGUAGAAGGCGGUCUCAGCA [Eli eng2 - 003] (Eterna round: R96, puzzle: Exclusion NG 2)”, the “apparent KD of MS2 coat protein” value by setting is: (input ligand: FMN 200 uM) 12.6 nM; under setting [1], 9.39 nM; (input ligand: none) 13.7 nM.
In the case of “AGCUGUGGCCGAGGAUAUCAAGACCGAUGGAAAACCAUCGGAACUCAACAUGAGGAUCACCCAUGUGAGAAGGCGGUCUCAGCA [Eli eng2 - 027] (Eterna round: R96, puzzle: Exclusion NG 2)”, the “apparent KD of MS2 coat protein” value came to 10.9 nM (input ligand: FMN 200 uM), 7.82 nM under setting [1] and 10.9 nM (input ligand: none).
In the case of “AGCUGUGGCCGAGGAUAUCACUACCGAUGGAAAACCAUCGGAACUCCACAUGAGGAUCACCCAUGUGAGAAGGCGGUCUCAGCA [Eli eng2 - 029] (Eterna round: R96, puzzle: Exclusion NG 2)”, the “apparent KD of MS2 coat protein” value was 24 nM (input ligand: FMN 200 uM), 11.2 nM under setting [1] and 15.7 nM (input ligand: none).
On to “AGCUGUGGCCGAGGAUAUCUAAACCUCGAAAACGAAAUAUAAUCGAACAUGAGGAUCACCCAUGUAGAGAAGGCGGUCUCAGCA [Eli eng2 - 033] (Eterna round: R96, puzzle: Exclusion NG 2)”, for which the “apparent KD of MS2 coat protein” value under setting [1] is 51 nM.
For “AGCUGUGGCCGAGGAUAUCUAUCCAAUAAAACCGAAAUAUAAUCGGACAUGAGGAUCACCCAUGUAGAGAAGGCGGUCUCAGCA [Eli eng2 - 094] (Eterna round: R96, puzzle: Exclusion NG 2)”, the “apparent KD of MS2 coat protein” value under setting [1] stood at 16.4 nM.
Take “AGCUGUGGCCGAGGAUAUCUGUUCCAUAUAACCGACGUAUAGUCGGACAUGAGGAUCACCCAUGUAGAGAAGGCGGUCUCAGCA [Eli eng2 - 000] (Eterna round: R96, puzzle: Exclusion NG 2)”: the “apparent KD of MS2 coat protein” value came to 39.2 nM (input ligand: FMN 200 uM), 23.3 nM under setting [1] and 25.4 nM (input ligand: none).
In the case of “AGCUGUGGCCGAGGAUAUGACAUGAGGAUCACCCAUGUACAAGAUUAGGCCUGGUAACAGGCUCAUCAGAAGGCGGUCUCAGCA [Eli eng2 - 015] (Eterna round: R96, puzzle: Exclusion NG 2)”, the “apparent KD of MS2 coat protein” value (input ligand: FMN 200 uM) is 10 nM, the “apparent KD of MS2 coat protein” value under setting [1] is 9.52 nM and the “apparent KD of MS2 coat protein” value (input ligand: none) was 13.9 nM.
Turning to “AGCUGUGGCCGAGGAUAUGCUACUUCAAUAACCGAAAUAUAAUCGGACAUGAGGAUCACCCAUGUAGAGAAGGCGGUCUCAGCA [Eli eng2 - 085] (Eterna round: R96, puzzle: Exclusion NG 2)”, the “apparent KD of MS2 coat protein” value under setting [1] turned out to be 10.3 nM.
